How the values were obtained:
[1] = target: Cy3-labeled human 40S subunit (human) (UniProt P62841); assay: FRET or BRET
[2] = target: human 40S small ribosomal subunit (human) (UniProt P23396); assay: cryo-EM structure

Row | Substance | fraction of tethered 40S complexes that yielded FRET [1] [%] | koff [1] [s⁻¹] | lifetime of the FRET signal [1] [s] | fraction of 40S complexes with density for the Nsp1 linker and NTD [2] [%]
1 | Cy5-labeled Bat-Hp-CoV Nsp1 (natural protein) | 10 to 20 | < 0.01 | > 100 | 
2 | Bat-Hp-CoV Nsp1 wild type (natural protein) |  |  |  | 15

Source: publication PMC10575594
